We go through 36 molecules from patent publication US20210047372A1 (Affibody, published 2021).

A word on the Kd: it is the equilibrium constant for the complex coming apart. Higher therefore signals lower affinity. Broadly, the koff is the rate constant with which the complex falls apart. In general, kon refers to the second-order rate constant of association. Read a high kon as fast association.

One assay has as its target T1, insulin (UniProt P01308 25-54; P01308 90-110, limits assumed).
T1 construct: Mature insulin has two chains (A and B) from one precursor; also called b-insulin
Description: SPR, Biacore T200; target immobilized on CM5, His6-tagged Y variant injected; 1:1 Langmuir. The protocol:
(§1) Kinetic constants (kₐ and kd) and affinities (KD) were determined for Hiss-tagged Y variants using a Biacore T200 instrument (GE Healthcare). Target proteins C4, IL-6 and insulin, respectively, were immobilized in separate flow cells on the carboxylated dextran layer of different CM5 chip surfaces (GE Healthcare).
(§2) Immobilization was performed using amine coupling chemistry according to the manufacturer's protocol and PBS pH 7.4 supplemented with 0.1 Tween20 (PBST 0.1%) as running buffer. The ligand immobilization levels on the surfaces were 3280-8830 RU for C4, 495-1184 RU for IL-6, and 270-282 RU for insulin. One flow cell surface on each chip was activated and deactivated for use as blank during analyte injections. In the kinetic experiment, PBST 0.1% was used as running buffer at a flow rate of 30 μl/min. The analytes, i.e. Y variants, were each diluted in PBST 0.1 buffer at concentrations of 1000, 500, 100, 50 and 10 nM and injected for 5 min, followed by dissociation in running buffer for 3 min. After dissociation, the surfaces were regenerated with one injection of 30 μl 10 mM HCl. Kinetic constants were calculated from the sensorgrams using the Langmuir 1:1 model of Biacore T200 Evaluation software 2.0 (GE Healthcare).

The target of another assay is T2, interleukin 6 (IL-6) (UniProt P05231 30-212).
T2 construct: also called b-IL-6
The description is as above. The method, then:
as §1, §2

T1 sequence (P01308 25-54 limits assumed, form in doubt, chain 1 of 2): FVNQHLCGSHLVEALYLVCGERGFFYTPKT
T1 sequence (P01308 90-110 limits assumed, form in doubt, chain 2 of 2): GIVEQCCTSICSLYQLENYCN

B1: Y00299 (designed binder)
chain: MGSSHHHHHHGSSLAEAKEAAIAELDSKGVGAYQIKFIQVAKTVEQVQILKQAILADLPA
notes: From library Ylib002Naive.I
In the assay with insulin, B1 came in with a Kd of 6.5 nM, a dissociation rate constant (koff) of 0.002 s⁻¹ and an association rate constant (kon) of 310000 M⁻¹ s⁻¹.

B2: Y02709 (designed binder)
chain: MGSSHHHHHHGSSLAEAKEAALAELDSKGVGAAKIKWIQDAKSVETVQFLKQAILAELPA
notes: Y00358 with I9L
In the assay with insulin, B2 showed a Kd of 380 nM, an off-rate constant (koff) of 0.01 s⁻¹ and an on-rate constant (kon) of 27000 M⁻¹ s⁻¹.

B3: Y02711 (designed binder)
chain: MGSSHHHHHHGSSLAEAKEAAIAELDSKGVGAAKIKWIEDAKSVETVQFLKQAILAELPA
notes: Y00358 with Q26E
In the assay with insulin, B3 yielded a Kd of 54 nM, a koff of 0.008 s⁻¹ and an association rate constant (kon) of 150000 M⁻¹ s⁻¹.

B4: Y02714 (designed binder)
chain: MGSSHHHHHHGSSLAEAKEAAIAELDSKGVGAYQIKFIEIAHTVEEVQLMKQAILADLPA
notes: Y00310 with Q26E
B4: in the assay with insulin, the affinity, expressed as Kd, was 540 nM; the off-rate (koff) was found to be 0.16 s⁻¹; the kon amounted to 290000 M⁻¹ s⁻¹.

B5: Y02710 (designed binder)
chain: MGSSHHHHHHGSSLAEAKEAAIAELDSYGVGAAKIKWIQDAKSVETVQFLKQAILAELPA
notes: Y00358 with K15Y
Turning to B5, in the assay with insulin, the Kd was found to be 14 nM, the off-rate constant (koff) was 0.0027 s⁻¹ and the kon turned out to be 190000 M⁻¹ s⁻¹.

B6: Y00310 (designed binder)
chain: MGSSHHHHHHGSSLAEAKEAAIAELDSKGVGAYQIKFIQIAHTVEEVQLMKQAILADLPA
notes: From library Ylib002Naive.I
In the assay with insulin, B6 registered a Kd of 37 nM, a koff of 0.0063 s⁻¹ and an on-rate (kon) of 170000 M⁻¹ s⁻¹.

B7: Y00345 (designed binder)
chain: MGSSHHHHHHGSSLAEAKEAAIAELDSKGVGAYQIKFIQVAKTVEAVQAIKQAILADLPA
notes: From library Ylib002Naive.I
In the assay with insulin, B7 returned an equilibrium dissociation constant (Kd) of 61 nM, a koff of 0.017 s⁻¹ and an on-rate (kon) of 290000 M⁻¹ s⁻¹.

B8: Y00304 (designed binder)
chain: MGSSHHHHHHGSSLAEAKEAAIAELDSKGVGAYQIKFIQVAHDVEEVQILKQAILADLPA
notes: From library Ylib002Naive.I
On to B8, for which, in the assay with insulin, binding was put at a Kd of 21 nM, the koff was determined as 0.0011 s⁻¹ and the kon is 85000 M⁻¹ s⁻¹.

B9: Y02715 (designed binder)
chain: MGSSHHHHHHGSSLAEAKEAAIAELDSYGVGAAKIKWIEDAKSVETVQFLKQAILAELPA
notes: Y00358 with K15Y + Q26E
B9: in the assay with insulin, the equilibrium dissociation constant (Kd) came to 280 nM, the off-rate (koff) was found to be 0.0019 s⁻¹ and the kon was found to be 6700 M⁻¹ s⁻¹.

B10: Y02716 (designed binder)
chain: MGSSHHHHHHGSSLAEAKEAAIAELDSYGVGARQIKWIEQAKSVEVVQWLKQAILADLPA
notes: Y00301 with K15Y + Q26E
As to B10, in the assay with insulin, the affinity, expressed as Kd, was 7.6 nM; the koff came to 0.21 s⁻¹; the kon amounted to 2.7e+07 M⁻¹ s⁻¹.

B11: Y00358 (designed binder)
chain: MGSSHHHHHHGSSLAEAKEAAIAELDSKGVGAAKIKWIQDAKSVETVQFLKQAILAELPA
notes: From library Ylib002Naive.I
Regarding B11, in the assay with insulin, the affinity, expressed as Kd, was 10 nM; the koff was 0.0023 s⁻¹; the kon stood at 220000 M⁻¹ s⁻¹.

B12: Y02717 (designed binder)
chain: MGSSHHHHHHGSSLAEAKEAAIAELDSYGVGAYQIKFIEIAHTVEEVQLMKQAILADLPA
notes: Y00310 with K15Y + Q26E
As to B12, in the assay with insulin, binding was characterised by a dissociation constant (Kd) of 610 nM, the off-rate (koff) was 0.02 s⁻¹ and the on-rate (kon) amounted to 33000 M⁻¹ s⁻¹.

B13: Y02713 (designed binder)
chain: MGSSHHHHHHGSSLAEAKEAAIAELDSYGVGAYQIKFIQIAHTVEEVQLMKQAILADLPA
notes: Y00310 with K15Y
In the assay with insulin, B13 returned a Kd of 190 nM, a koff of 0.014 s⁻¹ and an on-rate (kon) of 110000 M⁻¹ s⁻¹.

B14: Y00032 (designed binder)
chain: MGSSHHHHHHGSSLAEAKEAAIAELDSKGVGAYQKSFIELAKSVEHVELLKEAILADLPASGSVD
In the assay with insulin, B14 came in with a Kd of 50 nM.

B15: Y00125 (designed binder)
chain: MGSSHHHHHHGSSLAEAKEAANAELDSKGVGAYQKSFIELAKSVEHVELLKEAILADLPASGSVD
notes: Differs from Y00032 only in position 9 (N instead of I)
In the assay with insulin, B15 gave an equilibrium dissociation constant (Kd) of 110 nM.

B16: Y00296a (designed binder)
chain: MGSSHHHHHHGSSLAEAKEAAIAELDSKGVGAYQIKFIQLAKSVEHVQLLKQAILADLPASYGS
notes: if it is only 46 residues long, ASYGS must be added at the C-terminus
The molecule B16 had a Kd with insulin of 22 nM.

B17: Y00035 (designed binder)
chain: MGSSHHHHHHGSSLAEAKEAANAELDSYGVQANSIEAIEQGLFVEVVELLKELILAALPASGSVD
notes: From library Ylib001Naive.I
B17: in the assay with interleukin 6 (IL-6), binding was characterised by a dissociation constant (Kd) of 360 nM.

B18: Y00263 (designed binder)
chain: MGSSHHHHHHGSSLAEAKEAAIAELKSKGVGAYQKSFIELAKSVEHVELLKEAILADLP
notes: Y00032 with D13K
In the assay with insulin, B18 showed a Kd of 130 nM.

B19: Y00273 (designed binder)
chain: MGSSHHHHHHGSSLAEAKEAAIAELDSKGVGAYQKSFIELAKSVQHVELLKEAILADLP
notes: Y00032 with E32Q
As to B19, in the assay with insulin, the dissociation constant (Kd) came out at 77 nM.

B20: Y00272 (designed binder)
chain: MGSSHHHHHHGSSLAEAKEAAIAELDSKGVGAYQKSFIELGKSVEHVELLKEAILADLP
notes: Y00032 with A28G
In turn, B20 yielded a dissociation constant (Kd) with insulin of 110 nM.

B21: Y00267 (designed binder)
chain: MGSSHHHHHHGSSLAEAKEAAIAELDSKGVGEYQKSFIELAKSVEHVELLKEAILADLP
notes: Y00032 with A19E
B21 gave a Kd with insulin of 59 nM.

B22: Y00274 (designed binder)
chain: MGSSHHHHHHGSSLAEAKEAAIAELDSKGVGAYQKSFIELAKSVEHVQLLKEAILADLP
notes: Y00032 with E35Q
In the assay with insulin, B22 returned a Kd of 56 nM.

B23: Y00265 (designed binder)
chain: MGSSHHHHHHGSSLAEAKEAAIAELDSKGIGAYQKSFIELAKSVEHVELLKEAILADLP
notes: Y00032 with V17I
As to B23, in the assay with insulin, binding was put at a Kd of 120 nM.

B24: Y00276 (designed binder)
chain: MGSSHHHHHHGSSLAEAKEAAIAELDSKGVGAYQKSFIELAKSVEHVELLKEAILKDLP
notes: Y00032 with A43K
For B24, the Kd with insulin is 76 nM.

B25: Y00296 (designed binder)
chain: MGSSHHHHHHGSSLAEAKEAAIAELDSKGVGAYQIKFIQLAKSVEHVQLLKQAILADLP
notes: Y00293 with E26Q
B25 displayed a dissociation constant Kd in the assay with insulin of 37 nM.

B26: Y00266 (designed binder)
chain: MGSSHHHHHHGSSLAEAKEAAIAELDSKGVSAYQKSFIELAKSVEHVELLKEAILADLP
notes: Y00032 with G18S
Consider B26, for which the dissociation constant Kd with insulin worked out at 56 nM.

B27: Y00275 (designed binder)
chain: MGSSHHHHHHGSSLAEAKEAAIAELDSKGVGAYQKSFIELAKSVEHVELLKQAILADLP
notes: Y00032 with E39Q
Molecule B27 yielded an equilibrium dissociation constant (Kd) in the assay with insulin of 59 nM.

B28: Y00264 (designed binder)
chain: MGSSHHHHHHGSSLAEAKEAAIAELDSYGVGAYQKSFIELAKSVEHVELLKEAILADLP
notes: Y00032 with K15Y
The molecule B28 showed a dissociation constant (Kd) with insulin of 64 nM.

B29: Y00269 (designed binder)
chain: MGSSHHHHHHGSSLAEAKEAAIAELDSKGVGAYQKKFIELAKSVEHVELLKEAILADLP
notes: Y00032 with S23K
B29 showed a Kd with insulin of 390 nM.

B30: Y00271 (designed binder)
chain: MGSSHHHHHHGSSLAEAKEAAIAELDSKGVGAYQKSFIQLAKSVEHVELLKEAILADLP
notes: Y00032 with E26Q
In the case of B30, the equilibrium dissociation constant (Kd) with insulin was found to be 47 nM.

B31: Y00268 (designed binder)
chain: MGSSHHHHHHGSSLAEAKEAAIAELDSKGVGAYQISFIELAKSVEHVELLKEAILADLP
notes: Y00032 with K22I
The molecule B31 came in with an equilibrium dissociation constant (Kd) with insulin of 84 nM.

B32: Y00330 (designed binder)
chain: MGSSHHHHHHGSSLAEAKEAAIAELDSKGVGAKYIKMIQMAKHVETVQYMKQAILASLPA
notes: From library Ylib002Naive.I
Regarding B32, in the assay with insulin, the equilibrium dissociation constant (Kd) turned out to be 120 nM, the dissociation rate constant (koff) came to 0.0037 s⁻¹ and the kon worked out at 30000 M⁻¹ s⁻¹.

B33: Y00356a (designed binder)
chain: MGSSHHHHHHGSSLAEAKEAAIAELDSKGVGAKYIKMIQHAHYVEVVQWLKQAILAHLPA
notes: From library Ylib002Naive.I; if it is only 46 residues long, an A must be added at the C-terminus
In the assay with insulin, B33 displayed a dissociation constant Kd of 0.17 nM, an off-rate (koff) of 0.0061 s⁻¹ and an on-rate (kon) of 3.4e+07 M⁻¹ s⁻¹.

B34: Y00361 (designed binder)
chain: MGSSHHHHHHGSSLAEAKEAAIAELDSKGVGAKFIKMIQSAKLVETVQLLKQAILADLPA
notes: From library Ylib002Naive.I
In the assay with insulin, B34 came in with a dissociation constant (Kd) of 310 nM, a dissociation rate constant (koff) of 0.0036 s⁻¹ and a kon of 12000 M⁻¹ s⁻¹.

B35: Y00296b (designed binder)
chain: MGSSHHHHHHGSSLAEAKEAAIAELDSKGVGAYQIKFIQLAKSVEHVQLLKQAILADLPGYS
notes: if it is only 46 residues long, GYS must be added
For B35, the Kd in the assay with insulin came to 31 nM.

B36: Y00296C (designed binder)
chain: MGSSHHHHHHTIDEWLLAEAKEAAIAELDSKGVGAYQIKFIQLAKSVEHVQLLKQAILADLP
notes: if it is only 46 residues long, TIDEWL must be put before it
In turn, B36 gave an equilibrium dissociation constant (Kd) with insulin of 51 nM.
